Results reported in patent publication US9802997B2, “Peptides and combination of peptides for use in immunotherapy against various tumors” (immatics biotechnologies GmbH, priority 2015, dated 2017).

Target: HLA-A*02:01 (Homo sapiens, UniProt P04439, D140Y/D185E/D98H/E176V/E277Q/G131W/G231S/I119V/I121R/I166T/I218V/L300P/L318F/N151K/N90K/P208A/P217A/Q86G/Q94H/R138H/R169H/T345S)
Test: MHC binding assay (UV-ligand exchange, beta2m ELISA)
Settings: binding to HLA-A*02:01, β2m ELISA
Text: Candidate peptides for T cell based therapies according to the present invention were further tested for their MHC binding capacity (affinity). The individual peptide-MHC complexes were produced by UV-ligand exchange, where a UV-sensitive peptide is cleaved upon UV-irradiation, and exchanged with the peptide of interest as analyzed. Only peptide candidates that can effectively bind and stabilize the peptide-receptive MHC molecules prevent dissociation of the MHC complexes. To determine the yield of the exchange reaction, an ELISA was performed based on the detection of the light chain (β2m) of stabilized MHC complexes. The assay was performed as generally described in Rodenko et al. (Rodenko et al., 2006).
96 well MAXISorp plates (NUNC) were coated over night with 2 ug/ml streptavidin in PBS at room temperature, washed 4× and blocked for 1 h at 37° C. in 2% BSA containing blocking buffer. Refolded HLA-A*02:01/MLA-001 monomers served as standards, covering the range of 15-500 ng/ml. Peptide-MHC monomers of the UV-exchange reaction were diluted 100 fold in blocking buffer. Samples were incubated for 1 h at 37° C., washed four times, incubated with 2 ug/ml HRP conjugated anti-β2m for 1 h at 37° C., washed again and detected with TMB solution that is stopped with […]. Absorption was measured at 450 nm. Candidate peptides that show a high exchange yield (preferably higher than 50%, most preferred higher than 75%) are generally preferred for a generation and production of antibodies or fragments thereof, and/or T cell receptors or fragments thereof, as they show sufficient avidity to the MHC molecules and prevent dissociation of the MHC complexes.

Row | Substance | Peptide exchange (MHC class I binding score, peptide exchange yield)
1 | 91 (LLPSIFLMV; listed as Homo sapiens) [compound 91] | ++ (≧20% = ++)
2 | 117 (TLLEGISRA; listed as Homo sapiens) [compound 117] | ++ (≧20% = ++)
3 | 75 (ALLDGALQL; listed as Homo sapiens) [compound 75] | +++ (≧50 = +++)
4 | 31 (GLLETTGLLAT; listed as Homo sapiens) [compound 31] | +++ (≧50 = +++)
5 | 7 (ALLQALMEL; listed as Homo sapiens) [compound 7] | +++ (≧50 = +++)
6 | 5 (GLVDIMVHL; listed as Homo sapiens) [compound 5] | +++ (≧50 = +++)
7 | 81 (ILAEEPIYI; listed as Homo sapiens) [compound 81] | ++ (≧20% = ++)
8 | 51 (LDSEALLTL; listed as Homo sapiens) [compound 51] | ++ (≧20% = ++)
9 | 136 (LLWDAPAKC; listed as Homo sapiens) [compound 136] | +++ (≧50 = +++)
10 | 96 (ALDTTRHEL; listed as Homo sapiens) [compound 96] | ++ (≧20% = ++)
11 | 122 (SIIDTELKV; listed as Homo sapiens) [compound 122] | +++ (≧50 = +++)
12 | 109 (ILGSFELQL; listed as Homo sapiens) [compound 109] | +++ (≧50 = +++)
13 | 1 (KLQEKIQEL; listed as Homo sapiens) [compound 1] | ++++ (≧75% = ++++)
14 | 69 (LKVLKADVVL; listed as Homo sapiens) [compound 69] | ++ (≧20% = ++)
15 | 10 (QLIEKNWLL; listed as Homo sapiens) [compound 10] | +++ (≧50 = +++)
16 | 54 (YLVPGLVAA; listed as Homo sapiens) [compound 54] | +++ (≧50 = +++)

Row | Substance | Peptide exchange (MHC class I binding score, peptide exchange yield)
17 | 61 (ALYPKEITL; listed as Homo sapiens) [compound 61] | +++ (≧50 = +++)
18 | 82 (ILAEEPIYIRV; listed as Homo sapiens) [compound 82] | +++ (≧50 = +++)
19 | 68 (QLMNLIRSV; listed as Homo sapiens) [compound 68] | +++ (≧50 = +++)
20 | 6 (FLNAIETAL; listed as Homo sapiens) [compound 6] | ++++ (≧75% = ++++)
21 | 112 (ILAQDVAQL; listed as Homo sapiens) [compound 112] | +++ (≧50 = +++)
22 | 16 (SLADLSLLL; listed as Homo sapiens) [compound 16] | +++ (≧50 = +++)
23 | 95 (KLIDEDEPLFL; listed as Homo sapiens) [compound 95] | +++ (≧50 = +++)
24 | 137 (KLIYKDLVSV; listed as Homo sapiens) [compound 137] | ++ (≧20% = ++)
25 | 76 (FTAEFLEKV; listed as Homo sapiens) [compound 76] | +++ (≧50 = +++)
26 | 19 (KVFELDLVTL; listed as Homo sapiens) [compound 19] | ++ (≧20% = ++)
27 | 3 (RVIDDSLVVGV; listed as Homo sapiens) [compound 3] | +++ (≧50 = +++)
28 | 105 (AMLASQTEA; listed as Homo sapiens) [compound 105] | ++ (≧20% = ++)
29 | 98 (FVQEKIPEL; listed as Homo sapiens) [compound 98] | +++ (≧50 = +++)
30 | 70 (GLTEKTVLV; listed as Homo sapiens) [compound 70] | ++ (≧20% = ++)
31 | 59 (ALADGIKSFLL; listed as Homo sapiens) [compound 59] | +++ (≧50 = +++)
32 | 119 (SLIEESEEL; listed as Homo sapiens) [compound 119] | ++ (≧20% = ++)

Second part, the substance after the results:

Row | Peptide exchange (MHC class I binding score, peptide exchange yield) | Substance
33 | ++ (≧20% = ++) | 208 (HLNNDRNPL; listed as Homo sapiens) [compound 208]
34 | ++ (≧20% = ++) | 192 (TLLPSSGLVTL; listed as Homo sapiens) [compound 192]
35 | +++ (≧50 = +++) | 277 (KLQEELNKV; listed as Homo sapiens) [compound 277]
36 | ++ (≧20% = ++) | 266 (FLLDKPQDL; listed as Homo sapiens) [compound 266]
37 | +++ (≧50 = +++) | 239 (VIIKGLEEITV; listed as Homo sapiens) [compound 239]
38 | ++ (≧20% = ++) | 279 (VLMDEGAVLTL; listed as Homo sapiens) [compound 279]
39 | +++ (≧50 = +++) | 228 (SLLELDGINLRL; listed as Homo sapiens) [compound 228]
40 | +++ (≧50 = +++) | 226 (SLAGNLQEL; listed as Homo sapiens) [compound 226]
41 | +++ (≧50 = +++) | 139 (IILENIQSL; listed as Homo sapiens) [compound 139]
42 | +++ (≧50 = +++) | 145 (ALEEKLENV; listed as Homo sapiens) [compound 145]
43 | +++ (≧50 = +++) | 251 (LLWGNLPEI; listed as Homo sapiens) [compound 251]
44 | +++ (≧50 = +++) | 144 (FLISQTPLL; listed as Homo sapiens) [compound 144]
45 | +++ (≧50 = +++) | 249 (YLYQILQGI; listed as Homo sapiens) [compound 249]
46 | ++ (≧20% = ++) | 141 (NIDINNNEL; listed as Homo sapiens) [compound 141]
47 | +++ (≧50 = +++) | 147 (GLLSALENV; listed as Homo sapiens) [compound 147]
48 | +++ (≧50 = +++) | 231 (LLDDIFIRL; listed as Homo sapiens) [compound 231]
49 | +++ (≧50 = +++) | 183 (ALSYILPYL; listed as Homo sapiens) [compound 183]
50 | ++ (≧20% = ++) | 281 (LLLESDPKVYSL; listed as Homo sapiens) [compound 281]
51 | +++ (≧50 = +++) | 140 (FLDSQITTV; listed as Homo sapiens) [compound 140]
52 | ++ (≧20% = ++) | 212 (MTLSEIHAV; listed as Homo sapiens) [compound 212]
53 | +++ (≧50 = +++) | 283 (ALSELLQQV; listed as Homo sapiens) [compound 283]
54 | +++ (≧50 = +++) | 150 (VLLDMVHSL; listed as Homo sapiens) [compound 150]
55 | ++ (≧20% = ++) | 268 (SLDKDIVAL; listed as Homo sapiens) [compound 268]
56 | ++++ (≧75% = ++++) | 234 (VLLNEILEQV; listed as Homo sapiens) [compound 234]
57 | +++ (≧50 = +++) | 162 (GLLGNLLTSL; listed as Homo sapiens) [compound 162]
58 | ++ (≧20% = ++) | 176 (VQSGLRILL; listed as Homo sapiens) [compound 176]
59 | +++ (≧50 = +++) | 175 (SLLDLVQSL; listed as Homo sapiens) [compound 175]
60 | +++ (≧50 = +++) | 262 (LLLEAVWHL; listed as Homo sapiens) [compound 262]
61 | +++ (≧50 = +++) | 250 (LMQDSRLYL; listed as Homo sapiens) [compound 250]
62 | +++ (≧50 = +++) | 265 (FLLDKPQDLSI; listed as Homo sapiens) [compound 265]
